Positions count from the first letter of the chain named. Names and notes keep the numbering of the source.
Columns and labels:
[1] = biological target: the molecule itself; experiment: SEC; analytical size-exclusion chromatography, Superdex 200 10/30, Tris-HCl 20 mM pH 7.8, NaCl 100 mM, glycerol 5%, CHAPS 0.01%, DTT 4 mM; column calibrated with marker proteins; number of chains from apparent over theoretical monomer molecular weight
[2] = biological target: T1, KCTD1 (full-length, residues 1-257) (human), Q719H9; experiment: as above; conditions: remark: other sources report otherwise
T1 chain: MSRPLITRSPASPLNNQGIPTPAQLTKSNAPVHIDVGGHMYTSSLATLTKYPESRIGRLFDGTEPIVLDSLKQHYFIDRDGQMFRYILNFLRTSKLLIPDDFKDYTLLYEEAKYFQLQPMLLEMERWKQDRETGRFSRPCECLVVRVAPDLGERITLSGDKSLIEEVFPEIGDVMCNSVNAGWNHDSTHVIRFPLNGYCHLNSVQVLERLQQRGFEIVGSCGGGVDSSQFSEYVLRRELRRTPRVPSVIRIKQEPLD

B1: KCTD1 C-terminal domain (KCTD1^CTD, residues 134-235) (domain or fragment, human, UniProt Q719H9 134-235, looked up)
chain: GRFSRPCECLVVRVAPDLGERITLSGDKSLIEEVFPEIGDVMCNSVNAGWNHDSTHVIRFPLNGYCHLNSVQVLERLQQRGFEIVGSCGGGVDSSQFSEYVL
notes: KCTD1, C-terminal domain, residues 134-235; The sentences on expression host and on TEV removal of the tag list KCTD1, KCTD1^BTB and the point mutants but not KCTD1^CTD; source: recombinantly expressed (pETM11), purified (Superdex 200)
stoichiometry N [1]: ~4.5

B2: KCTD1 (full-length, residues 1-257), Q719H9 1-257 (natural protein)
chain: T1 chain
stoichiometry N [2]: 4.5

B3: KCTD1^D69E (full-length KCTD1 with the SEN-causing mutation D69E) (natural protein, human, UniProt Q719H9 1-257, looked up)
chain: T1 chain with D69E
notes: KCTD1, full-length protein, residues 1-257, disease-causing missense variant D69E; the mutation occurs in families with SEN syndrome; also called KCTD^D69E; source: E. coli BL21(DE3), purified (His-trap, TEV digestion, Superdex 200); not shown: polyHis, N-terminal, cleaved
binding result [1]: binds

B4: KCTD1^P20S (full-length KCTD1 with the SEN-causing mutation P20S) (natural protein, human, UniProt Q719H9 1-257, looked up)
chain: T1 chain with P20S
notes: KCTD1, full-length protein, residues 1-257, disease-causing missense variant P20S; the mutation occurs in families with SEN syndrome; also called KCTD^P20S; source: E. coli BL21(DE3), purified (His-trap, TEV digestion, Superdex 200); not shown: polyHis, N-terminal, cleaved
binding result [1]: binds

B5: KCTD1^H33P (full-length KCTD1 with the SEN-causing mutation H33P) (natural protein, human, UniProt Q719H9 1-257, looked up)
chain: T1 chain with H33P
notes: KCTD1, full-length protein, residues 1-257, disease-causing missense variant H33P; the mutation occurs in families with SEN syndrome; also called KCTD^H33P; source: E. coli BL21(DE3), purified (His-trap, TEV digestion, Superdex 200); not shown: polyHis, N-terminal, cleaved
binding result [1]: binds

B6: KCTD1^H74P (full-length KCTD1 with the SEN-causing mutation H74P) (natural protein, human, UniProt Q719H9 1-257, looked up)
chain: T1 chain with H74P
notes: KCTD1, full-length protein, residues 1-257, disease-causing missense variant H74P; the mutation occurs in families with SEN syndrome; also called KCTD^H74P; source: E. coli BL21(DE3), purified (His-trap, TEV digestion, Superdex 200); not shown: polyHis, N-terminal, cleaved
binding result [1]: binds

B7: KCTD1^G62D (full-length KCTD1 with the SEN-causing mutation G62D) (natural protein, human, UniProt Q719H9 1-257, looked up)
chain: T1 chain with G62D
notes: KCTD1, full-length protein, residues 1-257, disease-causing missense variant G62D; the mutation occurs in families with SEN syndrome; One sentence of the modelling section prints Gly62Glu; everywhere else G62D; also called KCTD^G62D; source: E. coli BL21(DE3), purified (His-trap, TEV digestion, Superdex 200); not shown: polyHis, N-terminal, cleaved
binding result [1]: binds

B8: KCTD1 BTB domain (KCTD1^BTB, residues 1-135) (domain or fragment, human, UniProt Q719H9 1-135, looked up)
chain: MSRPLITRSPASPLNNQGIPTPAQLTKSNAPVHIDVGGHMYTSSLATLTKYPESRIGRLFDGTEPIVLDSLKQHYFIDRDGQMFRYILNFLRTSKLLIPDDFKDYTLLYEEAKYFQLQPMLLEMERWKQDRETGR
notes: KCTD1, pre-BTB region and BTB domain, residues 1-135; source: E. coli BL21(DE3), purified (His-trap, TEV digestion, Superdex 200); not shown: polyHis, N-terminal, cleaved
stoichiometry N [1]: ~4.5
